Results reported in publication PMC5566547, “Nei-like 1 (NEIL1) excises 5-carboxylcytosine directly and stimulates TDG-mediated 5-formyl and 5-carboxylcytosine excision”.

Molecular target: NEIL1 P2T (human, UniProt Q96FI4 1-390, P2T)
Test: EMSA; EMSA: 25 mM Tris-HCl pH 7.5, 100 mM NaCl, 1 mM DTT, 10 nM DNA, 1-200 nM NEIL1 P2T, on ice 30 min; 6% native PAGE, 0.5x TBE, 4 C
Details: protein: recombinant; tags: C-terminal His6; label: 5'-32P top strand; blunt

Chain of NEIL1 P2T (Q96FI4 whole entry P2T): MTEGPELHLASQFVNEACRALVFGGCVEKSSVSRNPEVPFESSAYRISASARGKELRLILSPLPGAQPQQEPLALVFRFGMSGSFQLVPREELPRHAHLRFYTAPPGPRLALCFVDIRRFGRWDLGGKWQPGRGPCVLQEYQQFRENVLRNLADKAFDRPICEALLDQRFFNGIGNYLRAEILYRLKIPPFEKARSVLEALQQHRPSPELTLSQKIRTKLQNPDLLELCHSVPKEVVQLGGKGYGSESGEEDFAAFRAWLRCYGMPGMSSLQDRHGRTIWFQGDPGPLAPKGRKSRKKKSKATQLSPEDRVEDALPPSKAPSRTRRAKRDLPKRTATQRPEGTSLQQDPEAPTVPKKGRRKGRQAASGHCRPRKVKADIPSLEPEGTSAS

B1: 41-mer 5caC:G (dsDNA)
DNA 1: GCTACCTACCTAGCAGGGGCCAGCTGTCCCACTGCTCGGAA
DNA 2: TTCCGAGCAGTGGGACAGCTGGCCCCTGCTAGGTAGGTAGC
modifications: 5-carboxylcytosine at position 20 of top strand
B1: binds.

B2: 41-mer 5OHC:G (dsDNA)
DNA 1: GCTACCTACCTAGCAGGGGCCAGCTGTCCCACTGCTCGGAA
DNA 2: TTCCGAGCAGTGGGACAGCTGGCCCCTGCTAGGTAGGTAGC
modifications: 5-hydroxycytosine at position 20 of top strand
B2: binds.
